Reference: paper PMC11635053, “Development of a homotrimeric PSMA radioligand based on the NOTI chelating platform” (EJNMMI Radiopharmacy and Chemistry, 2024)

Tests used:
[1] = tested on: PSMA-positive LNCaP cells; test: Cell uptake / internalization of 68Ga-labeled conjugates in LNCaP cells; format: cell-based, human; conditions: 1 h incubation, 2.5 pmol per 10^6 cells, 68Ga-labeled
Protocol: Next, the cellular uptake of the ^68Ga-labeled conjugates 7, 8, and 9 as well as [^68Ga]Ga-PSMA-11 was determined in PSMA-positive LNCaP cells.
LNCaP cells were seeded (10^6 cells well^−1) in poly-L-lysine coated 6-well plates 24 h before the experiment. Experiments were performed twice in triplicate for each compound. The radiolabeling solutions of [^68Ga]Ga-7, [^68Ga]Ga-8, [^68Ga]Ga-9, and [^68Ga]Ga-PSMA-11 were first diluted with PBS (pH 7.4) to a concentration of […]. 100 µL of this dilution were added to 3900 µL PBS (pH 7.4) to obtain final stock solutions of each radiolabeled compound (0.025 nmol mL^−1).
On the day of the experiment, the medium was replaced by fresh preheated medium (1.4 mL w/o blocking, 1.3 mL with blocking) and the cells incubated for 1 h at 37 °C. Next, the blocking solution was added (100 μL, 2500 pmol) to the corresponding wells. Finally, the corresponding radiolabeled conjugate (100 μL, 2.5 pmol) was added to a final assay volume of 1.5 mL well^−1. After 1 h incubation time, the supernatants were removed and the cells were washed carefully with ice-cold PBS buffer (2 × 1 mL, pH 7.4) followed by a subsequent glycine–HCl washing step (50 mM, pH 2.8, 2 × 1 mL well^−1). Cells were incubated with the glycine–HCl solution for 4 min at r.t. Next, corresponding fractions were transferred into counting tubes. Subsequently, the cells were lysed by adding NaOH (2 × 1 mL well^−1, 0.1 M) and the lysed fractions were also transferred into counting tubes. As standards, 100 µL of each radiolabeled conjugate stock solution (0.025 nmol mL^−1, 2.5 pmol) were pipetted into counting tubes containing 2 mL PBS buffer. The activity of the standards, the surface bound fractions and the internalized fractions were measured in a Gamma counter. Means were calculated and subtracted by the background. The percentages of unspecific and specific cell-surface bound and internalized activity were calculated from the standards.

[2] = tested on: human serum proteins; test: in vitro; format: in vitro ADME; conditions: male, Protein binding
Protocol: To determine the protein bound fraction of each trimeric radiotracer, 100 μL of the radiolabeling solution of the corresponding ^68Ga-labeled conjugate were added to preheated (37 °C) 1000 μL human serum (male, AB, Sigma Aldrich, USA) in triplicates. Samples were incubated for 1 h at 37 °C. After cooling to r.t., the samples were centrifuged utilizing molecular cutoff (30 kDa) centrifuge tubes at 4 G for 5 min at 4 °C. The filters were additionally rinsed with PBS buffer (2 × 100 μL). The background subtracted activity in the filters and the filtrates were determined in a Gamma counter and the percentage of protein bound fractions were calculated.

[3] = format: in vitro ADME; conditions: 2 h
Protocol: 100 μL of the radiolabeling solution of each ^68Ga-labeled tracer were added to preheated (37 °C) 1000 μL human serum (male, AB, Sigma Aldrich, USA) in triplicates and incubated at 37 °C. At 1 and 2 h, 100 µL aliquots were taken, mixed with 100 µL ice-cold acetonitrile, and centrifuged at 4 G for 5 min at 4 °C. The corresponding filtrates were kept on ice until HPLC analysis. The supernatants were then analyzed by radio-RP-HPLC and fractions of intact compounds were calculated from the HPLC chromatograms. (gradient 4,Gamma-ray detector: 100–900 keV, injection volume: 20 μl). tR ([^68Ga]Ga-7) = 12.1 min, tR ([^68Ga]Ga-8) = 14.4 min, tR ([^68Ga]Ga-9) = 25.2 min.

[4] = in vivo; set-up: species or system mice; conditions: male, NOD/SCID, mouse, iv, total radioactivity
Protocol: The capability of [^68Ga]Ga-9 to delineate PSMA-expressing tumors in vivo was evaluated by small-animal PET imaging at 1 and 2 h p.i. For this, mice bearing LNCaP xenografts (n = 3) were injected with 1–3 MBq (250–500 pmol) [^68Ga]Ga-9 into a tail vein and subjected to micro-PET/CT imaging at 1 h post-injection (p.i.). PSMA specificity was confirmed by co-injection of 2-PMPA (1 µmol mouse^−1). […] LNCaP tumors were clearly visualized by [^68Ga]Ga-9 and only the kidneys and the bladder as the major excretory organs were visible. […] The kidney uptake was 67.86 ± 8.35% IA g^−1 (n = 3) in the normal group vs. 19.9 ± 4.43% IA g^−1 in the blocking group (n = 3). […] The blood uptake was relatively high at 1 h p.i. with 3.62 ± 0.42% IA g^−1. Uptake in the muscles was low with 0.32 ± 0.12% IA g^−1. […]
For PET imaging studies, mice were injected with 100 µL sterile saline formulations of 250–500 pmol [^68Ga]Ga-9 (1–3 MBq) by intravenous tail-vein injection and anesthetized with isoflurane (2–4% in air). […] Image counts per second per voxel (cps voxel^−1) were calibrated to activity concentrations (Bq mL^−1) by measuring a 3.5 cm cylinder phantom filled with a known concentration of radioactivity. […]
Competitive inhibition (blocking) studies were also performed in vivo and measured using static PET imaging to investigate the specificity of the radiotracers for PSMA. […]

For O=C(O)CC[C@H](NC(=O)N[C@@H](CCCCNC(=O)[C@H](Cc1ccc2ccccc2c1)NC(=O)[C@H]1CC[C@H](CNC(=O)CCCCn2ccnc2CN2CCN(Cc3nccn3CCCCC(=O)NC[C@H]3CC[C@H](C(=O)N[C@@H](Cc4ccc5ccccc5c4)C(=O)NCCCC[C@H](NC(=O)N[C@@H](CCC(=O)O)C(=O)O)C(=O)O)CC3)CCN(Cc3nccn3CCCCC(=O)NC[C@H]3CC[C@H](C(=O)N[C@@H](Cc4ccc5ccccc5c4)C(=O)NCCCC[C@H](NC(=O)N[C@@H](CCC(=O)O)C(=O)O)C(=O)O)CC3)CC2)CC1)C(=O)O)C(=O)O [^nat/68Ga-9, metal not drawn], the Cell-surface bound fraction [1] was 1.5 ± 0.5%, the fraction unbound at 1 h [2] was < 0.05 and the “Metabolic stability in human serum” value [3] was “no significant degradation”. For the same compound, the tissue to tissue ratio at 1 h ([4]; Tumor-to-kidney ratio) was 0.24 and the tissue to tissue ratio at 1 h ([4]; Tumor-to-liver ratio) was 5.17.
